Data as given in patent US20240043533A1 (NGM BIOPHARMACEUTICALS, published 2024).

Columns and labels:
collagen type IV = biological target: T1, collagen type IV; experiment: SPR (Biacore), collagen type IV amine-coupled on CM5 chip, LAIR1ECD-Fc injected at 125-4000 nM, 37 C
T1 construct: Control surface in the Biacore experiment; also called collagen IV
Procedure: (§1) The binding of ILT3 to fibronectin was evaluated by Biacore. Human plasma fibronectin was immobilized onto a CM5 sensor chip surface (flow cell 2) using standard amine coupling chemistry. Collagen type IV was immobilized onto flow cell 3 and used as a control. Human ILT3ECD-Fc or human LAIR1ECD-Fc were injected over both surfaces at different concentrations (125-4000 nM) at a flow rate of 50 μL/min at 37° C. Kinetic data were collected over time and fit using the simultaneous global fit equation to yield affinity constants (KD values) for each antibody.

[1] = biological target: T2, human plasma-derived fibronectin (Millipore) (human, UniProt P02751 32-2477); experiment: SPR (Biacore), human plasma fibronectin amine-coupled on CM5 chip, ECD-Fc injected, 37 C
T2 construct: Bought protein; also called human plasma fibronectin; human fibronectin
Procedure: as §1

human LILRA1 = biological target: T3, human LILRA1 (human, UniProt O75019 17-489); experiment: FACS on cells expressing human LILRA1, labeled anti-mouse Fc secondary antibody
T3 construct: whole, on cells
Procedure: (§2) ELISA assays were used to screen antibodies against human ILT3 and human LILRA1,2,4-6. […] These antibodies were rescreened by FACS for binding to human ILT3 and cyno ILT3 expressed on HEK-293T cells. The antibodies that bound to both human and cyno ILT3 were selected. This subset of antibodies were screened by FACS against human LILRB1-5 (ILT2, ILT4, ILT5, ILT3, and LILRB5, respectively), cyno LILRB5, and human LILRA1,2,4-6. For FACS screening, each antibody was incubated with cells expressing human ILT3, cyno ILT3, one of the LILRA proteins, or one of the LILRB proteins for 30 minutes at 4° C. After washing, the cells were incubated with labeled anti-mouse Fc antibody for 30 minutes at 4° C. After washing, cells were analyzed on a flow cytometer. Antibodies were selected on the criteria of binding to human ILT3, cyno ILT3, no or limited binding to other LILRB proteins, and no or limited binding to LILRA proteins.

[2] = biological target: human ILT3 expressed on myeloid cells (THP-1 cells, primary dendritic cells, macrophages) (human, UniProt Q8NHJ6 22-448); experiment: cell-based or functional assay
[3] = biological target: T4, ILT3ECD-Fc (human ILT3 extracellular domain fused to an immunoglobulin Fc region) (human, UniProt Q8NHJ6 22-259); experiment: blocking of the binding of ILT3-ECD-Fc (1 µg/mL) to endogenous fibronectin on Detroit 551 cells; imaging with polyclonal anti-ILT3 and AlexaFluor 647 secondary antibody
T4 construct: also called Human ILT3ECD-Fc; not shown: immunoglobulin Fc region
Procedure: FIG. 14. ILT3 binding to endogenously expressed fibronectin. Detroit 551 cells were plated onto poly-D-lysine-coated 384-well plates at 6×10³ cells/well and incubated for two days. Monolayers were rinsed with HBSS containing Mg²⁺ and Ca²⁺. ILT3-ECD-Fc was added to the wells in the presence of ant-ILT3 antibody 16C5, anti-ILT3 antibody ch5A7, or control anti-KLH antibody. The antibodies were serially diluted 3-fold in media containing the ILT3-ECD-Fc (range of 66 nM to 0.27 nM). Cells were incubated for 1 hr at room temperature and then washed three times with HBSS and fixed with 3.7% formalin for 10 min. Monolayers were rinsed with PBS and blocked with 1% BSA in PBS before staining with Hoechst stain and a commercially available polyclonal anti-ILT3 antibody. An AlexaFluor 647-conjugated rabbit anti-goat Fc secondary antibody was added, cells were imaged, and the level of fluorescence was quantified using a CellInsight imaging system.
The Detroit 551 cell line is composed of human skin fibroblasts established from normal fetal tissue. These cells have endogenously produced fibronectin bound to receptors on their surface. […] An AlexaFluor 647-conjugated rabbit anti-goat Fc secondary antibody (Jackson ImmunoResearch Labs) was added, cells were imaged, and the level of fluorescence was quantified using a Celllnsight imaging system.

LILRB5 = biological target: T5, LILRB5 (human, UniProt O75023); experiment: FACS on cells expressing human LILRB5, labeled anti-mouse Fc secondary antibody
T5 construct: expressed on the cell surface; also called human LILRB5; CD85C
Procedure: as §2

human LILRA6 = biological target: T6, human LILRA6 (human, UniProt Q6PI73 24-447, limits assumed); experiment: FACS on cells expressing human LILRA6, labeled anti-mouse Fc secondary antibody
T6 construct: Read out of the printed 'LILRA1,2,4-6'
Procedure: as §2

human LILRA4 = biological target: T7, human LILRA4 (human, UniProt P59901 24-499); experiment: FACS on cells expressing human LILRA4, labeled anti-mouse Fc secondary antibody
T7 construct: whole, on cells
Procedure: as §2

human LILRA2 = biological target: T8, human LILRA2 (human, UniProt Q8N149 24-483); experiment: FACS on cells expressing human LILRA2, labeled anti-mouse Fc secondary antibody
T8 construct: whole, on cells
Procedure: as §2

human LILRB2 = biological target: T9, human LILRB2 (human, UniProt Q8N423 22-597); experiment: FACS on cells expressing human LILRB2, labeled anti-mouse Fc secondary antibody
T9 construct: whole, on cells; also called ILT4
Procedure: as §2

Cyno LILRB5 = biological target: T10, Cyno LILRB5 (Macaca fascicularis, UniProt A0A2K5VIP6); experiment: FACS on cells expressing cyno LILRB5, labeled anti-mouse Fc secondary antibody
T10 construct: expressed on the cell surface; also called cynomolgus LILRB5
Procedure: as §2

human LILRA5 = biological target: T11, human LILRA5 (human, UniProt A6NI73 42-299); experiment: FACS on cells expressing human LILRA5, labeled anti-mouse Fc secondary antibody
T11 construct: whole, on cells
Procedure: as §2

LILRB4 = biological target: T12, LILRB4; experiment: FACS on cells expressing human LILRB4 (ILT3), labeled anti-mouse Fc secondary antibody
T12 construct: the construct expressed on the cells is not described further; also called human ILT3 expressed on cells for the FACS screen; ILT3
Procedure: as §2

[4] = biological target: T13, extracellular domain of human ILT3 (huILT3-ECD) (human, UniProt Q8NHJ6 22-259); experiment: SPR (Biacore), antibody captured via anti-Fc on CM5 chip, soluble ILT3-ECD injected, 37 C
T13 construct: also called human ILT3-ECD
Procedure: (§3) The binding affinities of anti-ILT3 antibodies to human ILT3 and cyno ILT3 were measured using a Biacore system (GE Healthcare LifeSciences). Briefly, anti-Fc antibody (Sigma-Aldrich) was immobilized on all four flow cells of a CM5 chip using amine coupling reagents (GE Healthcare LifeSciences). Antibodies were captured on flow cells 2, 3, and 4 using flow cell 1 as a reference. Concentrations ranging from 3.3-10 nM of human or cyno ILT3-ECD were injected at a flow rate of 50 μL/min at 37° C. Kinetic data were collected over time and fit using the simultaneous global fit equation to yield affinity constants (KD values) for each antibody.

[5] = biological target: T14, extracellular domain of cyno ILT3 (cynoILT3-ECD) (cynomolgus monkey); experiment: as above
T14 chain: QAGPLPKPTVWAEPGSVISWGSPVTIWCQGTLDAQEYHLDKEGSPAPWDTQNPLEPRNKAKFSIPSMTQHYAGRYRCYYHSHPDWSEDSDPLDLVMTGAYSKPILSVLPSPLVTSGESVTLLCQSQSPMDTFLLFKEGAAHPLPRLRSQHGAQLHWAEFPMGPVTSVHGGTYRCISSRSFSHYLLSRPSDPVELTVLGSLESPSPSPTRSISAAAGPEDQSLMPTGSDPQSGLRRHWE
Procedure: as §3

[6] = biological target: ILT3 extracellular domain chimeric receptor on NFAT-GFP reporter cells (human); experiment: cell-based or functional assay
LILRB3 = biological target: T15, LILRB3 (human, UniProt O75022); experiment: FACS on cells expressing human LILRB3, labeled anti-mouse Fc secondary antibody
T15 construct: expressed on the cell surface; also called human LILRB3; ILT5
Procedure: as §2

T3 sequence (O75019 17-489): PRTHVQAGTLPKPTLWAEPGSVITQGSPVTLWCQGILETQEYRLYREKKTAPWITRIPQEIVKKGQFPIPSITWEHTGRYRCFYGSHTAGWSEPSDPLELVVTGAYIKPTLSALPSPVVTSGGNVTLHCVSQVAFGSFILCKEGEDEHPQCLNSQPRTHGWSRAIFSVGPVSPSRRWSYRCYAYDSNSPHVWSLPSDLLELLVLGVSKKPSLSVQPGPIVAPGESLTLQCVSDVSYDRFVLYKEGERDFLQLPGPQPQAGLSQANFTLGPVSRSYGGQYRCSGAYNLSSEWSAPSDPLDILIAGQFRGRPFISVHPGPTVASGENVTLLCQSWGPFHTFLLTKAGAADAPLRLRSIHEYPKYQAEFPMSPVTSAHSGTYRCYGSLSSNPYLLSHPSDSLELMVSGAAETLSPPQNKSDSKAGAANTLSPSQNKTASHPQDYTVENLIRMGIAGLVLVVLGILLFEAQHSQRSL
T12 sequence (receptor, as listed by the source limits assumed): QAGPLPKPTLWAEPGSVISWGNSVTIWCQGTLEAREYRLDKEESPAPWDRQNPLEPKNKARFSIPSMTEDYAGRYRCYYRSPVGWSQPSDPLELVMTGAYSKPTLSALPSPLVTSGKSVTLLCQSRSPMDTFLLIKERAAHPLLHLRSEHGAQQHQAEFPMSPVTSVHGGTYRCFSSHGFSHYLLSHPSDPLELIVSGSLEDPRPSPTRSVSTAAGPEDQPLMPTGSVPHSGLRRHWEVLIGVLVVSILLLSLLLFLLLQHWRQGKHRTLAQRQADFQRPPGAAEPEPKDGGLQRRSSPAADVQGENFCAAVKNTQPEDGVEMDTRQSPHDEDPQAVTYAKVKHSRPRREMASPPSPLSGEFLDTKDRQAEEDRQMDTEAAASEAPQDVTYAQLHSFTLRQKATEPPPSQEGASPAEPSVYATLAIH
T9 sequence (Q8N423 22-597): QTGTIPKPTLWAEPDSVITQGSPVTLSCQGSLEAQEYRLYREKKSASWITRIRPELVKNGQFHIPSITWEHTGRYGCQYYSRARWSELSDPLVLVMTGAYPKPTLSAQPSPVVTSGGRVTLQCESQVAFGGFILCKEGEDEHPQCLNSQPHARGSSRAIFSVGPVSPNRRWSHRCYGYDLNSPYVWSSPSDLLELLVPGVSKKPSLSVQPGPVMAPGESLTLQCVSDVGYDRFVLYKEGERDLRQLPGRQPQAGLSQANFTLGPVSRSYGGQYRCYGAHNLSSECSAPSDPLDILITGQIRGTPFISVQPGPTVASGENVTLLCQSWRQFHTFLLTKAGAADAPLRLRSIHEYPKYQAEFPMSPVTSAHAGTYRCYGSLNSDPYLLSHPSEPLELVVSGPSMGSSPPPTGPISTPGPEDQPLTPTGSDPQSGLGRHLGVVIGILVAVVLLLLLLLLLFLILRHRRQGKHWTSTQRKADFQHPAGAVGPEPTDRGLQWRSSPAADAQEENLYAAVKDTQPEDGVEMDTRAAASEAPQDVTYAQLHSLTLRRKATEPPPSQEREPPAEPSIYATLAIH
ILT3 extracellular domain chimeric receptor on NFAT-GFP reporter cells (human), sequence (Q8NHJ6 22-259, change not shown): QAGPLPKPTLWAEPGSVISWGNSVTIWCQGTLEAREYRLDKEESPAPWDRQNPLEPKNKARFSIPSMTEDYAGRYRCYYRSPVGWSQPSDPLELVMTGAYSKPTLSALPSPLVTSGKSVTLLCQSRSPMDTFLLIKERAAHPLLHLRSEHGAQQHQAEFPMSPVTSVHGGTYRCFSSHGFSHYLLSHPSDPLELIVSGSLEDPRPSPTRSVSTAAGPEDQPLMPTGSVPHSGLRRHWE
T8 sequence (Q8N149 24-483): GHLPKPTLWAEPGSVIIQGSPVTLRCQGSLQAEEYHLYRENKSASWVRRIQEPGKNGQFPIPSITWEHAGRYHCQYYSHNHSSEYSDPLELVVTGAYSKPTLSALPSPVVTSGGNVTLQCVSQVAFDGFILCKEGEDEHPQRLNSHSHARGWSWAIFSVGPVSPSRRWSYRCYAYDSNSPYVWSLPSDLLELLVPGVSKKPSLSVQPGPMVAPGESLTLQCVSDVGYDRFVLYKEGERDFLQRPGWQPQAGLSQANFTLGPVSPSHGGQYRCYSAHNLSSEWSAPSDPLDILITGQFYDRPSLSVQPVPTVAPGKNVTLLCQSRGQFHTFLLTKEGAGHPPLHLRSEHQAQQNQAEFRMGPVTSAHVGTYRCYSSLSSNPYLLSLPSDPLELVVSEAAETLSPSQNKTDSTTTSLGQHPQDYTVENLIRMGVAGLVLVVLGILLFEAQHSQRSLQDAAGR
T15 sequence (O75022 24-631 limits assumed): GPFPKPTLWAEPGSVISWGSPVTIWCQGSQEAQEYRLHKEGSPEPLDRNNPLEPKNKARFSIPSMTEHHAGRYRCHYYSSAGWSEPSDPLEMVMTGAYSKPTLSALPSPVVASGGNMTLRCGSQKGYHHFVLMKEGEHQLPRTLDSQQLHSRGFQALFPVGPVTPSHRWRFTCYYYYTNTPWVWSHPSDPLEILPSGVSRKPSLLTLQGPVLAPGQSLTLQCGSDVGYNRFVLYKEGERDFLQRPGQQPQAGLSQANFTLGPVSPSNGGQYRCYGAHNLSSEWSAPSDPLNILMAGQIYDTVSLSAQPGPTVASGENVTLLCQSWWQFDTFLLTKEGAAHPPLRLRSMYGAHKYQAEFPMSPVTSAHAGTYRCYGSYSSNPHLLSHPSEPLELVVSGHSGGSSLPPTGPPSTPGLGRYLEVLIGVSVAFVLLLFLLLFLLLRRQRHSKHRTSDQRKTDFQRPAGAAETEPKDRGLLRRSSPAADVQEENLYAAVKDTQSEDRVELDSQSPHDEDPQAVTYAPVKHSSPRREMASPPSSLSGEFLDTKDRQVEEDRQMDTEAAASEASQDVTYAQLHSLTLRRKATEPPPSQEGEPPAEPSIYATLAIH
T5 sequence (O75023 24-590 limits assumed): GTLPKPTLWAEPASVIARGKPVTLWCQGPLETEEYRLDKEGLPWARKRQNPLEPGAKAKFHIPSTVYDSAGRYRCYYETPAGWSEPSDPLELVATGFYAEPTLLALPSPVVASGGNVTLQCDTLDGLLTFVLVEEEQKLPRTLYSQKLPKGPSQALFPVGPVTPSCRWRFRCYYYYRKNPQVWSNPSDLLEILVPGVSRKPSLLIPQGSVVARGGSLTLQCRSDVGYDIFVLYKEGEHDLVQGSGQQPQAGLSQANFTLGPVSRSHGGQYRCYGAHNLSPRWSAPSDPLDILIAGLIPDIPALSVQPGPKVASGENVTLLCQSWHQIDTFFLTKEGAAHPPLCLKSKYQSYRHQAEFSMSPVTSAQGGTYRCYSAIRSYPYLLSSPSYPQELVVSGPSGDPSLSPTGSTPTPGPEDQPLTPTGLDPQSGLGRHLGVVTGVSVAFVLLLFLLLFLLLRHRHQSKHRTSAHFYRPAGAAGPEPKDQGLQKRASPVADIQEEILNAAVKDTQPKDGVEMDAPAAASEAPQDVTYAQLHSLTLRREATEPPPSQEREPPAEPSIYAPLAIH
T6 sequence (Q6PI73 24-447 limits assumed): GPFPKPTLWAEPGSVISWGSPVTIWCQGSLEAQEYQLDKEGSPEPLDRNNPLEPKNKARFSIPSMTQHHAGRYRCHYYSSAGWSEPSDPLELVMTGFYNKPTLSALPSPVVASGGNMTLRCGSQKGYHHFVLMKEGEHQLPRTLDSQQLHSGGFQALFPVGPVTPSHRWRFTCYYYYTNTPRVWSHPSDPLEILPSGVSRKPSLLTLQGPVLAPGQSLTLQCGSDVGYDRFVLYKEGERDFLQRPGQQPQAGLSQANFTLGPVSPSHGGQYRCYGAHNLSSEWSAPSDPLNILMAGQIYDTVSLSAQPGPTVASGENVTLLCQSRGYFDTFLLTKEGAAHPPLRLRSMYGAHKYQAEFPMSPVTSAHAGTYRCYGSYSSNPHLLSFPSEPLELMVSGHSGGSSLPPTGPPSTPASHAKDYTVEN
T11 sequence (A6NI73 42-299): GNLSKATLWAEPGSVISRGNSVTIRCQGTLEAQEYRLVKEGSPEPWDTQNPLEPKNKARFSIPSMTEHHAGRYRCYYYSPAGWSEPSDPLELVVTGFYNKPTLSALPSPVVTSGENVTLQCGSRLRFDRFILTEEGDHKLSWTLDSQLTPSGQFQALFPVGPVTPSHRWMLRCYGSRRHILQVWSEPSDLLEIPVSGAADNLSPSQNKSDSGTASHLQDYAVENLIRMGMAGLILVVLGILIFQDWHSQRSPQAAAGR
T7 sequence (P59901 24-499): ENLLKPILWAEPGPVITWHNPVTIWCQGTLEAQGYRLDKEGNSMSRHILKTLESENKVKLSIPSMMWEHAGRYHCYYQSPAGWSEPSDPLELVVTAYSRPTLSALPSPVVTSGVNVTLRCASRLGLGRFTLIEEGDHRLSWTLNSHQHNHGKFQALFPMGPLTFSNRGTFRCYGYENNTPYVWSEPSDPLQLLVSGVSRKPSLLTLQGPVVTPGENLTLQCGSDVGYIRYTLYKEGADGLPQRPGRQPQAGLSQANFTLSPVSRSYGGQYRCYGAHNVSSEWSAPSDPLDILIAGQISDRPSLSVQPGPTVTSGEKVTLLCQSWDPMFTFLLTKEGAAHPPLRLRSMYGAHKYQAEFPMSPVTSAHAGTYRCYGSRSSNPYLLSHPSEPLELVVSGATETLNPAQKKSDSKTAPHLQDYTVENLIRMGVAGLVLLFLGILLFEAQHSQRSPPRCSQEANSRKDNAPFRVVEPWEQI

B1: human LAIR1ECD-Fc (Fc fusion, UniProt Q6GTX8 22-165, looked up)
chain: QEEDLPRPSISAEPGTVIPLGSHVTFVCRGPVGVQTFRLERDSRSTYNDTEDVSQASPSESEARFRIDSVREGNAGLYRCIYYKPPKWSEQSDYLELLVKESSGGPDSPDTEPGSSAGPTQRPSDNSHNEHAPASQGLKAEHLY
notes: extracellular domain; not shown: Fc region
Question: Which Kd (collagen type IV) does the source give for B1 here?
Answer: ≥ 5000 nM

Question: Does B1 bind [1]?
Answer: no binding (tested: 125-4000 nM)

B2: anti-ILT3 antibody 16C5 (antibody, V domains shown)
VH: EVQLQQSGPELVKPGASVKISCKASGYTFTDYNMDWVKQSHGKSLEWIGYIYPSNGGTGYNQKFKSKATLTVDKSSNTAYMELHSLTSEDSAVYYCARVPYYDYLYYYAMDYWGQGTSVTVSS
VL: QIVLSQSPAILSASPGEKVTMACRASSSVSFMHWYQQKPGSSPQPWIYATSNLASGVPARFSGSGSGTSYSLTISRVEAEDAATYYCQQWSTNPYMYTFGGGTKLEIK
notes: Mouse monoclonal antibody from hybridoma
Question: What does the source list for B2?
Answer: binding result (human LILRA1): no binding (tested: log [Ab] about -7.2 M (about 6e-8 M)); EC50 (read off the curve) [2]: ~2 nM; binding result [3]: binds; binding result (LILRB5): no binding (tested: log [Ab] about -7.2 M (about 6e-8 M)); binding result (human LILRA6): no binding (tested: log [Ab] about -7.2 M (about 6e-8 M)); binding result (human LILRA4): no binding (tested: log [Ab] about -7.2 M (about 6e-8 M)); binding result (human LILRA2): no binding (tested: log [Ab] about -7.2 M (about 6e-8 M)); binding result (human LILRB2): no binding (tested: log [Ab] about -7.2 M (about 6e-8 M)); EC50 (read off the curve) (Cyno LILRB5): ~0.9 nM; binding result (human LILRA5): binds; binding result (LILRB4): binds; Kd [4]: 1.8 nM; koff [4]: 0.0002 s⁻¹; kon [4]: 110000 M⁻¹ s⁻¹; Kd [5]: 0.31 nM; koff [5]: 9e-05 s⁻¹; kon [5]: 290000 M⁻¹ s⁻¹; IC50 (read off the curve) [6]: ~0.2 nM; binding result (LILRB3): no binding (tested: log [Ab] about -7.2 M (about 6e-8 M))
